B1: HDV Ribozyme (parent)
chain: GGCCGGCAUGGUCCCAGCCUCCUCGCUGGCGCCGGCUGGGCAACAUUCCGAGGGGACCGUCCCCUCGGUAAUGGCGAAUGGGACCCA

Variants of B1 are the subject of this series. As to the kind of experiment: self-cleavage, relative activity (ratio to wild type); higher = more cleavage; co-transcriptional.
For G39A G67C, the self-cleavage worked out at 0.665. As for G25C A70U, the figure is 0.0898. As for G11A U12G, the figure is 0.0875; as for G2A G29C, 0.0292; as for C4U U20G, 0. Next, U46A A77G: 0.646. With U20C G82A, the self-cleavage stood at 0.0462. As for G55A C63G, the figure is 0.632; as for G11C G17C, 0.0536; as for C18A A87G, 0.0811. For G39U U79C, the self-cleavage worked out at 0.155. As for C15U U27G, the figure is 0.511; as for C32A C66G, 0.213; as for G53C G82U, 0.358.

Turning to U12A C36A, the self-cleavage was found to be 0.0992. As for G40U G50A, the figure is 0.577; as for C4U C14U, 1.04.

With C18A A71C, the self-cleavage was determined as 0.0504. Take C44U C62A: the self-cleavage stood at 0.665. On to G25U U46A, for which the self-cleavage worked out at 0.0852. Next, C24G A71U: 0.106; G29A G81U: 0.125. Take U72C G80U: the self-cleavage was found to be 0.0791.

G25A G81U: the self-cleavage was found to be 0.112. As for G25A G81C, the figure is 0.258. Consider G50C C57A, for which the self-cleavage was 1.04. Next, G2A U79A: 0.0225; C30G G40U: 0.0514; A56G C86U: 0.987. Regarding C22G A56C, the self-cleavage worked out at 0. Next, G25A C75G: 0.102; C22U C36G: 0.162. Next, C15A C30G: 0.138; C33G C57U: 0.166. As for C33A G67A, the figure is 0.273. Regarding A45G C86A, the self-cleavage is 0.639. As for G50A U60C, the figure is 0.945.

With G2A G68A, the self-cleavage is 0.185. As to C13U C33U, the self-cleavage worked out at 0.397.

As for G1C A56U, the self-cleavage turned out to be 0.17. As for C26U G35C, the self-cleavage was determined as 0.288. As for U23A C61U, the figure is 1.25; as for C48U G82U, 0.437. Take G5C U27C: the self-cleavage is 0. With U12A G67U, the self-cleavage amounted to 0.256.

For the variant C14A U60A, the self-cleavage worked out at 0.499.

In the case of A16C A83U, the self-cleavage was determined as 0.633.

As to G34A G54C, the self-cleavage came to 0.151.

Consider A51U C61G, for which the self-cleavage turned out to be 0.831.

For the variant G17C C19A, the self-cleavage turned out to be 0.0519. On to G5C C75G, for which the self-cleavage was found to be 0.123.

Take C14U A51U: the self-cleavage is 1.14. Take C32A U72A: the self-cleavage worked out at 0.156. As to G1A C21A, the self-cleavage amounted to 0.104. On to C3G A45G, for which the self-cleavage amounted to 0.816. On to G5C G39A, for which the self-cleavage amounted to 0.

As for C64U C86G, the self-cleavage amounted to 0.972. As for G67C U79A, the figure is 0.935; as for C14G U23G, 0.453. As for G10A C22A, the figure is 0.0528; as for C15A G74A, 0.174. As for C3A C24A, the figure is 0.0268. In the case of G74U U79C, the self-cleavage stood at 0.0963. Next, C14G G52U: 0.391; U20G U79C: 0.0773; G35A C64A: 0.379. Next, G1A U79A: 0.208; G54A C63U: 1.04.

Regarding G25C A51G, the self-cleavage came out at 0.237. For G6A C24A, the self-cleavage was 0.283.

On to U23C G74C, for which the self-cleavage amounted to 0.277.

For the variant C41A G50A, the self-cleavage is 0.957. Regarding C4U C32G, the self-cleavage is 0.

For G59C C62U, the self-cleavage was found to be 1.12. As for A77G G81C, the figure is 0.256; as for C4U G31U, 0.0346; as for U69G G74C, 0.383.

Turning to U60C A83U, the self-cleavage came out at 0.653.

As to A42G G68A, the self-cleavage was determined as 0.441.

Turning to C3U C57G, the self-cleavage came to 0.803.

C7A U79C: the self-cleavage is 0.128. Next, G6A U23G: 0.342; C18G G53U: 0.332. Next, C13A A16G: 0.293; G53U C86U: 1.14.

As to G6U C33A, the self-cleavage amounted to 0.0332. As for C13U C66G, the figure is 0.589; as for C26A C58U, 0.981.

Take G17A U27A: the self-cleavage came to 0.609. For the variant G17U C66A, the self-cleavage was 0.684.

For G40C C58G, the self-cleavage was determined as 0.264. Next, C14U G31U: 0.429; C24A U37G: 0.142.

For the variant U37A U72C, the self-cleavage is 0.

G28U G54C: the self-cleavage amounted to 0.234. Next, G6C G52U: 0.237; C21U C24U: 0.0287; C22G G38C: 0.391. Next, C13U U20G: 0.135. Regarding C41G G53U, the self-cleavage amounted to 0.53. Turning to G28A G38U, the self-cleavage stood at 0.0496.

On to C44A G80A, for which the self-cleavage amounted to 0.169. As for G17U U37A, the figure is 0.185; as for C26A C86G, 0.888; as for C62A U69A, 0.997. For G1A C30U, the self-cleavage was found to be 0.0554.

Consider G6U U46G, for which the self-cleavage was 0.123.

For the variant A16C A45U, the self-cleavage was 0.332. Next, C61G A83C: 0.364. Next, G10A U23G: 0.181. As for G31C U65A, the figure is 0.394; as for G1A G74U, 0.0563. For the variant A78C U79G, the self-cleavage is 0.113. As for C4G C18U, the figure is 0.0282; as for A16G A45U, 0.712; as for G54A U69G, 0.882.

Regarding U20G C26A, the self-cleavage is 0.32.

Take U72C C85A: the self-cleavage turned out to be 0.633. As for U23C C36A, the figure is 0.172; as for U79C A87C, 0.35; as for G2C G53A, 0.108. As for G1A G55A, the figure is 0.0519; as for C63U C85U, 1.01; as for A8G A43C, 0.145. For A42U C85U, the self-cleavage was 0.541.

With G28C G54A, the self-cleavage is 0.0639. Next, C13U A71U: 0.494; G2C C64U: 0.0219.

Take G2C C64G: the self-cleavage is 0.0804. Next, G40C C75A: 0.0326. Regarding C44A A56C, the self-cleavage was determined as 0.853. Next, A43U A51G: 0.911; U60C C62G: 1.07. For G29U U47A, the self-cleavage came out at 0. Next, G35C G59U: 0.204; C44G G81U: 0.271; U9C C58U: 0.886. For U69G C84A, the self-cleavage stood at 0.779.

For G34U A71G, the self-cleavage was 0.154. As for C63A G67C, the figure is 0.544; as for G54U A71G, 0.897; as for C24A G59U, 0.783. Next, C62G U79A: 0.489; A8G G11A: 0.196. Next, C18G G81C: 0. As to C18A G31A, the self-cleavage was found to be 0.0898. As for C32U G55U, the figure is 0.935. As for G5A A71C, the figure is 0.0426; as for C14G U72C, 0.0978; as for U9G G31C, 0.378.

Regarding C3A G53C, the self-cleavage amounted to 0.635. On to C24G U72A, for which the self-cleavage came to 0.0437.

C18A C19U: the self-cleavage was 0.0339. For the variant A45C G76A, the self-cleavage turned out to be 0.869. Take G17A C33A: the self-cleavage amounted to 0.0875.

For C64U G82A, the self-cleavage was 0.487. As for C21A G31C, the figure is 0.0817; as for C15U A51G, 1.07. C32A U47A: the self-cleavage came out at 0.322. Next, C58G C84U: 0.721.

Consider G53U G54A, for which the self-cleavage is 0.758. As for C32G A87U, the figure is 0.135.

Regarding U12A C21U, the self-cleavage came to 0.0831. Next, A16U G81U: 0.554; C14G G39U: 0.237; G59U G81A: 0.361.

Regarding C49A A56U, the self-cleavage came out at 1.1.

The record behind these values is the RNAGym collection of RNA variant scans (doi:10.7554/elife.80360).
